Experimental data: paper PMC8041770 (2021)

B1: yeast-displayed wild-type human LIFR CBM I–Ig-like domains (Gln45 to Gln337) [human] / recombinant human LIF, histidine-tagged (hLIF-His) [human] (parent complex)
chain 1: QKKGAPHDLKCVTNNLQVWNCSWKAPSGTGRGTDYEVCIENRSRSCYQLEKTSIKIPALSHGDYEITINSLHDFGSSTSKFTLNEQNVSLIPDTPEILNLSADFSTSTLYLKWNDRGSVFPHRSNVIWEIKVLRKESMELVKLVTHNTTLNGKDTLHHWSWASDMPLECAIHFVEIRCYIDNLHFSGLEEWSDWSPVKNISWIPDSQTKVFPQDKVILVGSDITFCCVSQEKVLSALIGHTNCPLIHLDGENVAIKIRNISVSASSGTNVVFTTEDNIFGTVIFAGYPPDTPQ
chain 2: not shown

Variants of: B1
Assay: flow cytometry of yeast-displayed LIFR variants; parent: 1; read off a plot

In order of rising ratio to parent:
1. chain 1 I217V, chain 1 L218P, chain 1 N242D, chain 1 V262A, chain 1 T273I, chain 1 N277D  ~6
2. chain 1 L218P, chain 1 N242D, chain 1 I257V, chain 1 N277D  ~6
3. chain 1 I217V, chain 1 L218P, chain 1 N242D, chain 1 I257V, chain 1 I260V, chain 1 V262A, chain 1 T273I, chain 1 N277D  ~12
4. chain 1 L218P, chain 1 H240R, chain 1 I257V, chain 1 V262A, chain 1 T273I, chain 1 N277D  ~12
5. chain 1 I217V, chain 1 L218P, chain 1 H240R, chain 1 N242D, chain 1 I257V, chain 1 I260V, chain 1 V262A, chain 1 T273I, chain 1 N277D  ~13
6. chain 1 L218P, chain 1 H240R, chain 1 N242D, chain 1 I257V, chain 1 I260V, chain 1 V262A, chain 1 T273I, chain 1 N277D  ~13
7. chain 1 L218P, chain 1 H240R, chain 1 I257V, chain 1 I260V, chain 1 V262A, chain 1 T273I, chain 1 N277D  ~15
